Laboratory results from patent publication US20100234294A1 (INSTITUT NATIONAL DE LA SANTE ET DE LA RECHERCHE MEDICALE …, published 2010).

Experiments:
Assay in all cases: co-expression in COS cells
FcERIγ = molecular target: T1, FcERIγ (UniProt P30273 19-86)
T1 sequence (looked up): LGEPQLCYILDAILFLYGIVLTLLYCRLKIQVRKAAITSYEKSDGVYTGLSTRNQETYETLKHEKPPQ

DAP12 = DAP12 (UniProt O43914 22-113)
DAP10 = molecular target: T2, DAP10 (UniProt Q9UBK5 19-93)
T2 sequence (looked up): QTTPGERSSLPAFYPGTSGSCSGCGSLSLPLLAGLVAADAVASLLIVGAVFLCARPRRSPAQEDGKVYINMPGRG

ζ = molecular target: T3, ζ (UniProt P20963 22-164)
T3 construct: also called CD3ζ
T3 sequence (P20963 22-164 limits assumed): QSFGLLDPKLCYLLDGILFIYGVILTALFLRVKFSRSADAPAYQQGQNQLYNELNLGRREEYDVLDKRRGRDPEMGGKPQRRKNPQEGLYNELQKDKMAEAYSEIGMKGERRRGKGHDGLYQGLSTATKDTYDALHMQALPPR

Chain of DAP12 (O43914 22-113 limits assumed): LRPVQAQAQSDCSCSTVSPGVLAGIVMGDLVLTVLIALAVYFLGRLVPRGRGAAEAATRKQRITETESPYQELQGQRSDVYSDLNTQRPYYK

binding result (FcERIγ): no binding | binding result (DAP12): no binding | binding result (DAP10): no binding | binding result (ζ): no binding
B1: CD160-TM, Flag-tagged, expressed by transfected cells (receptor)
chain: GCINITSSASQEGTRLNLICTVWHKKEEAEGFVVFLCKDRSGDCSPETSLKQLRLKRDPGIDGVGEISSQLMFTISQVTPLHSGTYQCCARSQKSGIRLQGHFFSILFTETGNYTVTGLKQRQHLEFSHNEGTLSSGFLQEKVWVMLVTSLVALQGMSKRAVSTPSNEGAIIFLPPWLFSRRRRLERMSRGREKCYSSPGYPQESSNQFH
notes: Expressed in Jurkat cells from pEF6; Also used here for the co-expression in COS cells, where the construct is not described; also called CD160-TM transfectants; CD160-TM-transfected cells; not shown: Flag tag coded by the reverse oligonucleotide (C-terminal)
